From the nanobody polyreactivity screen of Harvey et al. (2022)

Test: yeast display, Sf9 membrane polyspecificity reagent, FACS + sequencing; frameworks hold sequencing errors
Procedure, shortened: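 Synthetic nanobody libraries on Saccharomyces cerevisiae BJ5465 were galactose-induced for 36–48 hours, stained 1 hour at 4 °C with 10% biotinylated, detergent-solubilized Sf9 membrane reagent and enriched on streptavidin microbeads. FACS then separated cells into low and high (top ~1%) gates by anti-HA (expression) and streptavidin (reagent binding) fluorescence. Genes were colony-PCR amplified, MiSeq 2 × 250 sequenced and CDR-length filtered. A clone's polyreactivity label is that of its gate of origin.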

| Sequence | polyreactivity (PSR sort gate) |
| --- | --- |
| QVQLVESGGGLVQAGGSLRLSCAASGYTFTHYAMGWYRQAPGKERELVAGITWSGGSTYYADSVKGRLTISRDNAKNTVYLQMNSLKPEDTSVYYCAAKYYWYYSYSGIPLFDYWGQGTQVTVSS | low polyreactivity |
| QVQLVESGGGLVQAGGSLRLSCASSGSTFDANAMGWYRQAPGKERELVAAITSNGGSTYYADSVKGRFTISRDNAKNTVYLQMNSLKPEDTAVYYCATEQHTVQDYDYWGQGTQVTVSS | low polyreactivity |
| QVQLVESGGGLVQAGGSLRLSCAASGFTFLSYAMGWYRQAPGKERELVAAISRSGGSTYYADSVKGRFTISRDNAKNTVYLQMNSLKPEDTAVYYCAARSAFRNQFSRNNYWGQGTQVTVSS | high polyreactivity |
| QVQLVESGGGLVQAGGSLRLSCAASGRTFTNNAMGWYRQAPGKERELVAAIRWSGGYTYYADSVKGRFTISRDNAKNTVYLQMNSQKPEDTAVYYCAKGYGYVEAVIVQYDYWGQGSQVTVSS | low polyreactivity |
| QVQLVDSGGGLVQAGGSLRLSCAASGRIFPYYAMGWYRQAPGKERELVAAISSGGSTKYADSVKGRFTISRDNAKNTVYLQMNSLKPEDTAVYYCAKDPFPWALFDYWGQGTLVTVSS | low polyreactivity |
| QVQLVESGGGLVQEGGSLRLSCAASGSIFKQYAMGWYRQAPGKERELVAAISYSGGTTYYADSVKGRFTISRDNAKNTVYLQMNSMKPEDTAVYYCAAEWWILSYRFDYWGQGTQVTVSS | high polyreactivity |
| QVQLVESGGGLVQAGGSLRLSCAASGRTFRRYTMGWYRQAPGKEREFVAGITSSAGNTHYADSVKGRFTISRYNAKNTVYLQMNSLKPEDTAVYYCNAVYYHGSSQYYGGTYGRYYWGQGTQVTVSS | high polyreactivity |
| QVQLVESGGGLVQAGGSLRLSCAASGSTFLVNAMGLYRQAPGKEREFVAAITGNAGSTYYADSVKGRFTISRDNAKITVYLQMNSLIPEDTAVYYCARTRRTPRGYLDFSLREYDYWGQGTQVTVSS | low polyreactivity |
| QVQLVESGGGLVQAGGSLRLSCAASGITFYPYAMGWYRQAPGKERELVAAISRRGGSTNYADSVKGRFTISRDNAKNTVYLQMNSLKPEDTAVYYCNRDYPIGYRQDPVYYWGQGSQVTVSS | high polyreactivity |
| QVQLVESGGGLLQAGGSLRLSCAASGLIFYDNMGWYRQAPGKERELVAAISSTGGSTSYADSVKGRFTISRDNAKNTVYLLMNSLKPEDTAVYYCAADSYPAYLGFVGFDYWGQGTQLTVSS | low polyreactivity |
| QVQLLESGGGLFQPGGSLRLSCAASGRTFDGNVMGWYRQAPGKETELVAAITASGGRTYYADSVKGRFTISSDNAKNTVYLQMNSLKAEDTAVYYCNAGIRRSRGTMDYWGQGTQVTVSS | high polyreactivity |
| QVQLVESGGGLVQAGGSLRLICAASGFIFGSYAMGWYRQAPAKERELVAAINYDGGSTYYADSVKGRFTISRDNAKNTVYLQMNSMKPEDTAVYYCAADLYYTHMDYWGQGTQVTVSS | low polyreactivity |
| QVQLVESGGGLVQAGGSLRLSCAASGIISRSYTMGWYRQAPGKERELVAVISSSGGSTYYADSVKGRFTISRDNAKNTVYLQMNSLKPEDTAVYYCAARPVTRFQGSDYWGQGTQVTVSS | high polyreactivity |
| QVQLVESGGGLVQAGGSLRLSCAASGYIFPSYAMGWYRQAPGKERELVAVITTRGSTYYADSVKGRFTISRDNAKNTVYLQMNSVKAEETAVYYCAAAPYVYWFFVRPYGDDYWGLGTQVTVSS | high polyreactivity |
| QVQLVESGGGLVQAGGSLRLSCAASGRIFRGYAMGWYRQAPGKERELVAAISYSGGTTYYADSVKGRFTISRDNAKNTVYLQMNSLKPEDTAVYYCNVDADYESQWLSVGYDYWGQGTQVTVSS | low polyreactivity |
| QVQLVESGGGLVQAGGSLRLSCAASGRIFRPYAMGWYRQAPGKERELVATITGSGGTTYYADSVKGRFTISRDNAKNSVYFQMNSLKPEDTAVYYCNVDPRSDIIPMDYWGQGTQVTVSS | low polyreactivity |
| QVQLQECGCGLVQAGCSLRLSCAASGTFSNSLKWLYCQAPGKEREFVATIGVGGSTNYADSVKGRFTISRDNAKNTVYLQMNSLKPEDTAVYYCAARLDTVTDYYYWGQGTQVTVSS | low polyreactivity |
| QDQLVESGGGLVQAGGSLRLSCAASGSILIHNAMGWSRQAPGKERELVAAITSGGSTNYADSVKGRFTISRDNAKNTVYLQMNSLKPEDTAVYYCATAVGRVLVGYDYWGQGTQVTLSS | low polyreactivity |
| QVQLQESGGDLVQAGGSLRLSCAASGTIYGLTSMGSYRQRPGKEREFVAAITDGGNTNYADSVKGRFTISRDNAKNTVYLQMISLKPDETAVYYWAVLFSDDAYYAYWGQGTQVTVSS | low polyreactivity |
| QVQLVESGGGLVQAGGSLRLSCAASGRNFTSNSMGLYRQAPGKEREFVAAITTSGASTRYADSVKGRFTISRDNAKNTVYLQMNSLKPEDTAVYYCAAEQRRFTGYDYWGQGTQVTVSS | high polyreactivity |
| QVQLVESGGGLVQAGGSLRLSCAASGRTFRWNAMGWSRQAPGKERELVASISSGGRTNYADSVKGRFTLSRDNAKNTVYLQMNSLKPEDTAVYYCAKRVSWPQLYDYWGQGTQVTVSS | high polyreactivity |
| QVQLVESGGGLVQAGGSLRLSCAASGRIFGLYAMGWYRQAPGKERELVAGITYSGGTTYYADSVKGRFTISRDNAKNTVYLQMNSLKPEDTAVYYCNKRWYYQYGKYGYWGQGTQVTVSS | high polyreactivity |

| Sequence | polyreactivity (PSR sort gate) |
| --- | --- |
| QVQLVESGGGLVQAGGSLRLSCAASGLTFRTYAMGWYRQAPGKERELVAAISRSGSTTYYADSVKGRFTISRDNAKNTVYLQMNSLKPEDTAVYYCAAVGIRWLEYWGQGTQVTVSS | high polyreactivity |
| QVQLVESGGGLVQAGGSLRLSCAASGSTFTDYAMGWYRQAPGKERELVAAIDSGGITNYADSVKGRFTISRDNAKNTVYLQMNSLKPEDTAVYYCAVEGEYLTPSGRYRLDYWGQGTQVTVSS | low polyreactivity |
| QVQLVESGGGLVQAGGSLRLSCAASGSIFSSNTMGWYRQAPGKERELVAAITSGGGTYYADSVKGRFTISRDNAKNTVYLQMNSLKPEDTAVYYCAAQRDYKSSPSYDYWGQGTQVNVSS | low polyreactivity |
| QVQLVESGGGLVQAGGSLRLSCAASGFIFKGNAMGWSRQAPGKERELVAAISSRGGSTYYADSVKGRFTISRDNAKNTVYLQMNSLKPEDTAVYYCATRVYWRNDYWGQGTQVTVSS | high polyreactivity |
| QVQLVESGGGLVQAGGSLRLSCAASGFTFAKYAMGWYRQAPGKERELVAAISSNGGTTYYADSVKGRFTISRDNAKNTVYLQMNSLKPEDTAVYYCAVRSRVYPSRVKYDYWGQGTQVTVSS | high polyreactivity |
| QVQLVESGGGLVQAGGSLRLSCAASGSIFSFNAMGWYRPAPGKERELVAAISKSGGRTYYADSVKGRFTISRDNAKNTVYLQMNSLKPEDTAVYYCNVVSYYLYTPGDYWGQGTQVTVSS | high polyreactivity |
| QVQLVESGGGLVQAGGSLRLICAASGSTSQINAMGWYRQAPGKERELVAAINSGDITNYADSVKGRFTISRDNAKNTVYLQMNSLKPEDTAVYYCNADILVVKFDYWGQGTQVTVSS | low polyreactivity |
| QVQLVESGGGLVQAGGSLRLSCAASGFTFKYYAMGWYRPAPGKERELVAAIRRSAGSTNYADSVKGRFTISRDNAKNTVYLQMNSLKPEDTAVYYCNTVGTRQPMDYWGQGTQVTVSS | high polyreactivity |
| QVQIVESGGGLVQAGGSLRLSCAASGRTIYYYTMGWYIQAPGKERELVAAITHGGSTYYADSVKGRFTISRDNAKNTVYLQMNSLNPEDTAVYYCNAVYDYPYEYWGQGTQVTVSS | high polyreactivity |
| QVQLVESGGGLVQAGGSLRLSCAASGYTFSDNAMGWYRQAPGKERELVAAITSGVSTYYADSVKGRFTISRDNAKNTVYLQMNSQKPEDTAVYYCAKEVAVFADLYQGAPYGYWGQGTQVTVSS | low polyreactivity |
| QVQHVESGGGLVQAGGSLRLSCAASGRTFGYNDMGWSRQAHGKERELVATISWGGGSTYYADSVKWRFTISRDNAKNTVYLQMNSLKAEDTAVYYCNKVHFGRRHSYSGAIYGEDYWGLGTQVTVSS | high polyreactivity |
| QVQLVESGGGLVQAGGSLRLSCAASGLIFLVNAMGWYRQAPGKERELVAAIDRDGGITYADSVKGRFTISRDNAKNTVYLQMNSQKPEDTAVYYCAADPSSYGRFTYDYWGQGTQVTVSS | low polyreactivity |
| QVQLVESGGGLVQAGGSLRLSCAASGYTFRYYAMGWYRQAPGKERELVAAITGSGGSTYYADSVKGRFTISRDNAKNTVYLQMNSLKPEDTAVYYCNTVTTSYKRSGKFDYWGQGTQVTVSS | high polyreactivity |
| QVQHVESGGGLVQAGGSLRLSCAASGSTFSQYGMGWYRQAPGKEREFVAGISGSGGRTYYADSVKGRFTSSRDNAKNTVYLQMNSLKPEDTAVYYCAAETVYKWWYDYYYWGQGTQVTVSS | high polyreactivity |
| QVQLVESGGGLVQAGGSLRLSCAASGSTFSVYTMGWYRQAPGKERELVATISGGGSTYYADSVKGRFTISRDNAKNTVYLQMNSLKPEDTAVYYCNAQGYGIFTSSLDYWGQGTQVTVSS | low polyreactivity |
| HVQHVESAGGLVQAGGSLRLSCAASGSIFTYNALGGYIQAPGKERELVAAIDYSGGSTYYADSVKGRFTISRDNAKNTVYLQMNSLKPEDTAVYYCAAPWVPYPGYSLYGYDYWGQGTQVTVSS | low polyreactivity |
| QVQLVESGGGLVQAGGSLRLSCAASGSIFGRYAMGWYRQAPGTEREGVAAISRSCDNTSYADSVKGRFTISRDTAKNTVYLQMNSLKPEDSAVYYCNADRPFSLGQRKYVDFDEPYNYWGQGTQVTVSS | low polyreactivity |
| QVQLVESGGGLVQAGGSLRLSCAASGSIFQRYAMGWYRQAPGKEREFVAAISGRGGSTYYADSVKGRFTISRDNAKNTVYLQMNSLKPEDTAVYYCAVRGRSYVRTYDYWGQGTQVTVSS | high polyreactivity |
| QVQLVESGGGLVQAGGSLRLSCAASGSTFLPNAMGWYRQAPGTERELVATITFDGGSTYYADSVKGRFTISRDNAKNTVYLQMNSLKPEDTAVYYCNTVELYWRGYDYWGQGTQVTVSS | high polyreactivity |
| QVQLVESGGGLVQAGGSLRLSCAASGRTFSTNAMGWYRQAPGKEREFVAAITGSGGSTYYADSVKGRFTISRDNAKNTVYLQMNSLKPEDTAVYYCAKRSAWHTYRYGYWGQGTQVTVSS | high polyreactivity |
| QVQLVESGGGLVQAGGSLRLSCAASGRIFVDYAMGWYRQAPGKERELVAAIRSSGGSTYYADSVKGRFTISRDNAKNTVYLQMNSLKPEDTAVYYCNTPKYLRASSGYNYWGQGTQVTVSS | high polyreactivity |
